# Experimental data reported in US20240238448.
# Target: ZFHD1-FKBP (ZF-FKBP fusion) (synthetic construct) (UniProt P08046+P14859)
# Assay: cell_activity
# Details: GFP reporter in 293-ZF-FKBP cells with CEM87 recruiting BRD4; dose-dependent; indirect evidence of binding; no response in WT 293 cells
# Sequence of ZFHD1-FKBP (ZF-FKBP fusion) (synthetic construct) (P08046 333-390, chain 1 of 2): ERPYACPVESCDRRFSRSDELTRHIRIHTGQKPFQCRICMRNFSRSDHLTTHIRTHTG
# Sequence of ZFHD1-FKBP (ZF-FKBP fusion) (synthetic construct) (P14859 378-439, chain 2 of 2): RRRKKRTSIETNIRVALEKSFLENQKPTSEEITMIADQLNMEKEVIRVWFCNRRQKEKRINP
substance,measurement,value
ZF binding domain recognition sequence (ZFHD1 cognate site) upstream of JET promoter in AAV2-BD-JET-GFP,activity (fold activation),> 10
